Values quoted from earlier work in article PMC3409362.
Like-named read-outs stand apart in the source and are kept apart here.

Key:
[1] = target: F-actin (Oryctolagus cuniculus) (UniProt P68135)
[2] = target: F-actin (Oryctolagus cuniculus) (UniProt P68135); remark: listed apart in the source

For “V-ATPase B2 subunit (from UniProt P21281)”, the Kd [1] is given as 0.15 µM.
For “V-ATPase B1 subunit (from UniProt P15313)”, the Kd [2] is listed as 0.15 µM.
